Reference: the supplement of paper PMC9112550, “Optimization of the antimicrobial peptide Bac7 by deep mutational scanning” (BMC Biology, 2022)

tested on: Escherichia coli TOP10; assay: shrunken log2 fold change of peptide-encoding DNA abundance (4.5 h post-induction vs induction); higher = less antimicrobial activity (less host growth inhibition); conditions: time post-induction: 4.5 h; library: site-saturation at positions 5, 18, 19, 20
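Further: peptides expressed intracellularly from a pBAD plasmid library in pooled LB shake-flask culture, induced with 0.3% L-arabinose, DNA abundance read by NGS, three biological replicates, DESeq2 with apeglm shrinkage.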

In order of rising “shrunken log2 fold change” value:
1. RRIRYRPPRLPRPRPRPLKHPRP  -1.82
2. RRIRYRPPRLPRPRPRPSHKPRP  -1.57
3. RRIRYRPPRLPRPRPRPIFSPRP  -1.43
4. RRIRERPPRLPRPRPRPSSYPRP  -1.12
5. RRIRNRPPRLPRPRPRPQYKPRP  -0.876
6. RRIRYRPPRLPRPRPRPNYQPRP  -0.79
7. RRIRCRPPRLPRPRPRPFIMPRP  -0.765
8. RRIRCRPPRLPRPRPRPLNMPRP  -0.646
9. RRIRTRPPRLPRPRPRPSCTPRP  -0.643
10. RRIRFRPPRLPRPRPRPYCFPRP  -0.615
11. RRIRSRPPRLPRPRPRPPNYPRP  -0.606
12. RRIRSRPPRLPRPRPRPSEHPRP  -0.579
13. RRIRHRPPRLPRPRPRPFCIPRP  -0.538
14. RRIRNRPPRLPRPRPRPQFGPRP  -0.508
15. RRIRCRPPRLPRPRPRPISYPRP  -0.485
16. RRIRFRPPRLPRPRPRPAIHPRP  -0.478
17. RRIRYRPPRLPRPRPRPICPPRP  -0.471
18. RRIRPRPPRLPRPRPRPDIHPRP  -0.458
19. RRIRCRPPRLPRPRPRPCRYPRP  -0.446
20. RRIRNRPPRLPRPRPRPRIIPRP  -0.425
21. RRIRWRPPRLPRPRPRPWGHPRP  -0.404
22. RRIRNRPPRLPRPRPRPYALPRP  -0.399
23. RRIRKRPPRLPRPRPRPILHPRP  -0.394
24. RRIRCRPPRLPRPRPRPMIFPRP  -0.369
25. RRIRNRPPRLPRPRPRPNLIPRP  -0.369
26. RRIRSRPPRLPRPRPRPIIFPRP  -0.35
27. RRIRPRPPRLPRPRPRPMCMPRP  -0.32
28. RRIRERPPRLPRPRPRPIFVPRP  -0.295
29. RRIRYRPPRLPRPRPRPHYLPRP  -0.285
30. RRIRDRPPRLPRPRPRPINIPRP  -0.282
31. RRIRDRPPRLPRPRPRPYCMPRP  -0.28
32. RRIRCRPPRLPRPRPRPCDMPRP  -0.277
33. RRIRVRPPRLPRPRPRPLAKPRP  -0.252
34. RRIRVRPPRLPRPRPRPHQWPRP  -0.239
35. RRIRPRPPRLPRPRPRPWVPPRP  -0.228
36. RRIRQRPPRLPRPRPRPSAQPRP  -0.223
37. RRIRNRPPRLPRPRPRPNHCPRP  -0.216
38. RRIRKRPPRLPRPRPRPRKYPRP  -0.211
39. RRIRPRPPRLPRPRPRPHTAPRP  -0.205
40. RRIRRRPPRLPRPRPRPFYPPRP  -0.189
41. RRIRIRPPRLPRPRPRPSVLPRP  -0.189
42. RRIRFRPPRLPRPRPRPTHNPRP  -0.18
43. RRIRFRPPRLPRPRPRPFFHPRP  -0.18
44. RRIRLRPPRLPRPRPRPQMIPRP  -0.173
45. RRIRFRPPRLPRPRPRPWHGPRP  -0.151
46. RRIRMRPPRLPRPRPRPFCNPRP  -0.148
47. RRIRFRPPRLPRPRPRPFKPPRP  -0.147
48. RRIRVRPPRLPRPRPRPNTAPRP  -0.147
49. RRIRSRPPRLPRPRPRPEKFPRP  -0.146
50. RRIRWRPPRLPRPRPRPQYPPRP  -0.139
51. RRIRVRPPRLPRPRPRPSTIPRP  -0.136
52. RRIRDRPPRLPRPRPRPRILPRP  -0.116
53. RRIRSRPPRLPRPRPRPSNRPRP  -0.114
54. RRIRARPPRLPRPRPRPSKHPRP  -0.11
55. RRIRTRPPRLPRPRPRPQILPRP  -0.105
56. RRIRIRPPRLPRPRPRPKQLPRP  -0.0927
57. RRIRPRPPRLPRPRPRPMIEPRP  -0.0882
58. RRIRKRPPRLPRPRPRPIWSPRP  -0.0718
59. RRIRKRPPRLPRPRPRPDSKPRP  -0.0709
60. RRIRKRPPRLPRPRPRPSWTPRP  -0.0691
61. RRIRDRPPRLPRPRPRPQSWPRP  -0.0644
62. RRIRARPPRLPRPRPRPWQIPRP  -0.0641
63. RRIRPRPPRLPRPRPRPHQWPRP  -0.0599
64. RRIRTRPPRLPRPRPRPNGDPRP  -0.0598
65. RRIRGRPPRLPRPRPRPHCQPRP  -0.058
66. RRIRIRPPRLPRPRPRPVRNPRP  -0.0578
67. RRIRMRPPRLPRPRPRPLSSPRP  -0.0576
68. RRIRKRPPRLPRPRPRPDKDPRP  -0.0555
69. RRIRKRPPRLPRPRPRPQCEPRP  -0.0553
70. RRIRHRPPRLPRPRPRPQHVPRP  -0.048
71. RRIRSRPPRLPRPRPRPTCRPRP  -0.0471
72. RRIRCRPPRLPRPRPRPRNFPRP  -0.0465
73. RRIRMRPPRLPRPRPRPIWVPRP  -0.0406
74. RRIRMRPPRLPRPRPRPIELPRP  -0.04
75. RRIRDRPPRLPRPRPRPNMIPRP  -0.0358
76. RRIRVRPPRLPRPRPRPIRIPRP  -0.0273
77. RRIRVRPPRLPRPRPRPVANPRP  -0.0212
78. RRIRNRPPRLPRPRPRPCDHPRP  -0.0208
79. RRIRMRPPRLPRPRPRPQYIPRP  -0.0206
80. RRIRSRPPRLPRPRPRPMEKPRP  -0.0205
81. RRIRSRPPRLPRPRPRPDDCPRP  -0.0201
82. RRIRQRPPRLPRPRPRPKQNPRP  -0.0189
83. RRIRRRPPRLPRPRPRPFAGPRP  -0.0164
84. RRIRGRPPRLPRPRPRPMQCPRP  -0.0159
85. RRIRKRPPRLPRPRPRPDHEPRP  -0.013
86. RRIRRRPPRLPRPRPRPICYPRP  -0.0102
87. RRIRTRPPRLPRPRPRPREYPRP  -0.00842
88. RRIRSRPPRLPRPRPRPQVNPRP  -0.00752
89. RRIRTRPPRLPRPRPRPASNPRP  -0.00255
90. RRIRYRPPRLPRPRPRPMQCPRP  -0.00134
91. RRIRRRPPRLPRPRPRPIGRPRP  0.00106
92. RRIRWRPPRLPRPRPRPGYLPRP  0.0065
93. RRIRSRPPRLPRPRPRPCGGPRP  0.012
94. RRIRPRPPRLPRPRPRPNAPPRP  0.0216
95. RRIRERPPRLPRPRPRPAKRPRP  0.0249
96. RRIRQRPPRLPRPRPRPILFPRP  0.0255
97. RRIRDRPPRLPRPRPRPQCCPRP  0.0263
98. RRIRPRPPRLPRPRPRPTVFPRP  0.0272
99. RRIRVRPPRLPRPRPRPLEYPRP  0.0331
100. RRIRTRPPRLPRPRPRPVTQPRP  0.0354
101. RRIRFRPPRLPRPRPRPECMPRP  0.0416
102. RRIRARPPRLPRPRPRPWDNPRP  0.0421
103. RRIRIRPPRLPRPRPRPKRVPRP  0.0424
104. RRIRMRPPRLPRPRPRPVITPRP  0.043
105. RRIRPRPPRLPRPRPRPKRDPRP  0.0476
106. RRIRSRPPRLPRPRPRPWWIPRP  0.0584
107. RRIRLRPPRLPRPRPRPTLLPRP  0.0589
108. RRIRPRPPRLPRPRPRPFFVPRP  0.064
109. RRIRHRPPRLPRPRPRPQIPPRP  0.0645
110. RRIRGRPPRLPRPRPRPMTEPRP  0.0819
111. RRIRDRPPRLPRPRPRPVGYPRP  0.0934
112. RRIRGRPPRLPRPRPRPMLRPRP  0.117
113. RRIRFRPPRLPRPRPRPMQAPRP  0.119
114. RRIRYRPPRLPRPRPRPPARPRP  0.119
115. RRIRDRPPRLPRPRPRPHCLPRP  0.12
116. RRIRNRPPRLPRPRPRPHRRPRP  0.143
117. RRIRCRPPRLPRPRPRPQDGPRP  0.143
118. RRIRLRPPRLPRPRPRPPTHPRP  0.147
119. RRIRSRPPRLPRPRPRPKTRPRP  0.156
120. RRIRKRPPRLPRPRPRPNPNPRP  0.179
121. RRIRWRPPRLPRPRPRPEQIPRP  0.199
122. RRIRDRPPRLPRPRPRPCGKPRP  0.2
123. RRIRRRPPRLPRPRPRPKDKPRP  0.239
124. RRIRQRPPRLPRPRPRPAVVPRP  0.242
125. RRIRVRPPRLPRPRPRPRRHPRP  0.252
126. RRIRNRPPRLPRPRPRPARRPRP  0.294
127. RRIRKRPPRLPRPRPRPEWRPRP  0.295
128. RRIRDRPPRLPRPRPRPAVAPRP  0.309
129. RRIRRRPPRLPRPRPRPSMHPRP  0.324
130. RRIRARPPRLPRPRPRPFFGPRP  0.349
131. RRIRGRPPRLPRPRPRPFGPPRP  0.355
132. RRIRPRPPRLPRPRPRPTQPPRP  0.402
133. RRIRSRPPRLPRPRPRPVAAPRP  0.432
134. RRIRSRPPRLPRPRPRPAPMPRP  0.492
135. RRIRDRPPRLPRPRPRPGGLPRP  0.501
136. RRIRFRPPRLPRPRPRPAEWPRP  0.512
137. RRIRARPPRLPRPRPRPTHCPRP  0.518
138. RRIRRRPPRLPRPRPRPLLPPRP  0.574
139. RRIRERPPRLPRPRPRPAMRPRP  0.59
140. RRIRGRPPRLPRPRPRPLPHPRP  0.638
141. RRIRDRPPRLPRPRPRPGMGPRP  0.645
142. RRIRGRPPRLPRPRPRPKHEPRP  0.679
143. RRIRGRPPRLPRPRPRPVKDPRP  0.68
144. RRIRGRPPRLPRPRPRPETGPRP  0.81
145. RRIRCRPPRLPRPRPRPRAMPRP  0.914
146. RRIRGRPPRLPRPRPRPACKPRP  0.923
147. RRIRARPPRLPRPRPRPEQNPRP  0.928
148. RRIRGRPPRLPRPRPRPTDDPRP  1.01
149. RRIRIRPPRLPRPRPRPLRWPRP  1.02
150. RRIRGRPPRLPRPRPRPQATPRP  1.2
